No end group written: not given here.
T1: mouse melanocortin-5 (mMC5) receptor (mouse)
T1 chain: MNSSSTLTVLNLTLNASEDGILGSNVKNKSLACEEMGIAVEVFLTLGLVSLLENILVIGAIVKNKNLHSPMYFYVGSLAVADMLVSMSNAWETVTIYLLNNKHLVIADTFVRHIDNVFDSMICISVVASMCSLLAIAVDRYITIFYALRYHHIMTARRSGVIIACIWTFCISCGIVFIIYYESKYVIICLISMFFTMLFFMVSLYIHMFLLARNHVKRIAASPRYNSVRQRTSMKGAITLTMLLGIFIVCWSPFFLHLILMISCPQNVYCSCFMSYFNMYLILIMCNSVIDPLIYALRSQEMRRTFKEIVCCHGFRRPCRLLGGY

T2: human melanocortin-1 (MC1) receptor (human)
T2 chain: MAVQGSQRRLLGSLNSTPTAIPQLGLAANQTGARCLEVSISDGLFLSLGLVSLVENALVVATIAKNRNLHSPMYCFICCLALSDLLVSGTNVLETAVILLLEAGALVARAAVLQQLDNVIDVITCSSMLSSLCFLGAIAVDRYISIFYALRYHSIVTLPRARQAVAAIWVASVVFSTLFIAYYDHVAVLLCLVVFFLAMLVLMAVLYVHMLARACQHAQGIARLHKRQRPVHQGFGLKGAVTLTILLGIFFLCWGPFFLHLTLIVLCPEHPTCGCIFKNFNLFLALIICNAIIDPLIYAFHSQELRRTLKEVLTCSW

B1: human ACTH (1-39) (peptide)
peptide: SYSMEHFRWGKPVGKKRRPVKVYPNGAEDESAEAFPLEF
B2: ACTH (1-13) (peptide)
peptide: SYSMEHFRWGKPV
B3: α-MSH (peptide)
peptide: Ac-SYSMEHFRWGKPV
modifications: ends and bridges not checked

Assays:
[1] = target: T1, mouse melanocortin-5 (mMC5) receptor; experiment: competition with radio-iodinated NDP-MSH on L-cells transfected with the mMC5 receptor
[2] = target: human melanocortin-3 (MC3) receptor (human); experiment: cell-based or functional assay
[3] = target: T2, human melanocortin-1 (MC1) receptor; experiment: cell-based or functional assay
[4] = target: human melanocortin-4 (MC4) receptor (human); experiment: cell-based or functional assay
human melanocortin-4 (MC4) receptor (human), sequence (chain, as listed by the source): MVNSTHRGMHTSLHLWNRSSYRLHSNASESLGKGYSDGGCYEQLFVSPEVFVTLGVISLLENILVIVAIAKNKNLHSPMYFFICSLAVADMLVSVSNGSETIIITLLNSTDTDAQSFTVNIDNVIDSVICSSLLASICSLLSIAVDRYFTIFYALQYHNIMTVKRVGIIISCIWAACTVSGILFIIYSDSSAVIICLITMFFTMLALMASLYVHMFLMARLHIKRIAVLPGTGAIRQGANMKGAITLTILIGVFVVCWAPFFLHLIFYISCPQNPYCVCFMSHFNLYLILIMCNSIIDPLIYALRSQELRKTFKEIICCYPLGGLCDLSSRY

human melanocortin-3 (MC3) receptor (human), sequence (chain, as listed by the source limits assumed): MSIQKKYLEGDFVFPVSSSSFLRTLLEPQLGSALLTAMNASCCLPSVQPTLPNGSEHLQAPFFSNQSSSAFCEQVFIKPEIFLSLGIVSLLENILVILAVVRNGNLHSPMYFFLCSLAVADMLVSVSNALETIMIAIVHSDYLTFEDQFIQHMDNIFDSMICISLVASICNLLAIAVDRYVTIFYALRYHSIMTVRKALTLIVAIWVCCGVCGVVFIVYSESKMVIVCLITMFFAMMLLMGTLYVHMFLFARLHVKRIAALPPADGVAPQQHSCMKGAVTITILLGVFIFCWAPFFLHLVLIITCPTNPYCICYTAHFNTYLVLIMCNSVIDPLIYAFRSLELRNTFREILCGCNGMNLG

Row | Binder | binding result [1] | ED50 of cAMP generation in transfected L-cells [2] | ED50 of cAMP generation in transfected L-cells [3] | EC50 of cAMP increase in transfected L-cells [4] | fold greater binding affinity than ACTH (1-39) [1]
1 | B1 | binds | ~1 nM | ~1 nM | 1 nM | –
2 | B2 | – | – | – | – | ~10 fold
3 | B3 | – | ~1 nM | ~1 nM | – | –

Source: US5703220, “Genes encoding melanocertin-4 receptor and methods of use” (The Regents Of The University Of Michigan, dated 1997)
